The nanobody polyreactivity screen of Harvey et al. (2022)

Assay: yeast display, Sf9 membrane polyspecificity reagent, FACS + sequencing; frameworks hold sequencing errors
Procedure, shortened: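 In a synthetic yeast display library (Saccharomyces cerevisiae BJ5465), nanobody expression was induced with galactose for 36–48 hours. FACS gates were set low and high (top ~1%) using anti-HA fluorescence for expression and streptavidin fluorescence for binding of the Sf9 membrane reagent. Each polyreactivity label is drawn from the gate of origin.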

QVQLVESGGGLVQAGGSLRLSCAASGSTFFPYAMGWYRQAPGKVRELVAAIRWSGGRTYYADSVKGRFTISRDNPKNTVFLQMNSLKPEDTAVYYCNGYSVYVRGEYWGQGTQVTVSS
polyreactivity (PSR sort gate): high polyreactivity

QVQLVESGGGLVQAGGSLRIRCAASGSIFWYNAMGWYRQAPGKERELVAAISYRGGSTYYADSVKGRFTISRDNAKNTVYLQMNSLKPEDTAVYYCAAEYGDVYVWTYDYWGQGTQVTVSS
polyreactivity (PSR sort gate): high polyreactivity

QVQLVESGGGLVQAGGSLRLSCAASGRTFDSYTMGWYRQAPGKERELVADITFTGGSTYYADSVKGRFTISRDNAKNTVYLQMNSLKPDDTAVYYCNADREYKWYFRYDYWGQGTQVTVSS
polyreactivity (PSR sort gate): low polyreactivity

QVQLVESGGGLVQAGGSLRLSCAASGLIFVDNAMGWYRQAPGKERELVAAIDSGGRTYYADSVKGRFTISRDNAKNTVYLQMNSLKPEDTAVYYCAAPWRLFCLYDYWGQGTQVSVSS
polyreactivity (PSR sort gate): low polyreactivity

QVQLVESGGGLVQAGGSLRLSCAAYGFISPSYAMGWYRQAPGKERELVAAIRSSDGSTYYADSVKGRFTISRDNAKNTVYLQMNSLKPEDTAVYYCAARRVTSPFGSDSWGQGTQVTVSS
polyreactivity (PSR sort gate): low polyreactivity

QVQLVESGGGLVQAGGSLRLSCADSGSIYHNYDMGWYRQAPGKEKEFVADISRGGDTIYADSVKGRFSISRDNAKNTVYLQMNSLKPEDTAVYYCNATYWILDSPWWRETFDYWGQGTQVTVSS
polyreactivity (PSR sort gate): low polyreactivity

QVQLVESGGGLVQAGGSLRLSCAASGRTFKPNTMGWYRQAPGKERELVAAITSSGGSTYYADSVKGRFTISRDNAKNTVYLQMNSLKPEDTAVYYCAARGGAPYRIFKDDYWGQGTQVTVSS
polyreactivity (PSR sort gate): high polyreactivity

QVQLVESGGGLVQAGGSLRLSCAASGRTFPGYAMGWYRQAPGKERELVAAISSSGGSTYYADSVKGRFTISRDNAKNTVYLQMNSLKPEDTAVYYCNAAYRGRLYSWRYGYDYWGQGTQVTVSS
polyreactivity (PSR sort gate): high polyreactivity

QVQLVESGGGLVQAGGSLRLICAASGSTFGTYAMGWYRQAPGKERELVAAISWSGGSTYYADSVKGRFTISRDNAKNTVYLQMNSLQPEDTAVYWGQGTQVTVSS
polyreactivity (PSR sort gate): low polyreactivity

QVQLVEAGGGLVQAGGSLRLSCAASGSTFRWNAMGWYRQAPGKERELVAAITRSGGSTYYADSVKGRFTISRDNAKNTFYLQMNSLKPEDTAVYYCAAGYFTARRIRYDYWGQGTQVTVSS
polyreactivity (PSR sort gate): high polyreactivity

QVQLVESGGGLLQAGGSLRLSSAASGIIFYAYAMGWYRQAPGKERELVAAITFSAVSTYYADSVKGRFTISRDNAKNTVYLQMNCLKPEDTAVYYCAAEAYKHGVWDYDYWGQGTQVTVSA
polyreactivity (PSR sort gate): low polyreactivity

QVQLVESGGGLVQAGGSLRLSCAASGSTFYYYGMGWYRQAPGKERELVASISWGGGSTYYADSVKGRFTISRDNAKNTVYLQMNILKPEDTAVYYCATRGSYLGGLYDYWGQGTQVTVSS
polyreactivity (PSR sort gate): high polyreactivity

QVQLVESGGGLVQAGGSLRLSCAASGFTFVYYAMGWYRQAPGKERELVAAISTRGGSTYYADSVKGRFTISRDNAKNTVYLQMTSLKPEDTAVYYCAARSYPPGLRFDYWGQGTQVTVSS
polyreactivity (PSR sort gate): high polyreactivity

QVQLVESGGGLVQAGGSFRLSCAASGLISTTYAMGWYRQAPGKERELVAAINVSGGSTYYADSVKGRFTISRDHAKNTVYLQMNSLKPEDTAVYYCAARHDKRRQYYVGQSAFDYWGQGTQVTVSS
polyreactivity (PSR sort gate): low polyreactivity

QVQLVESGGGLVQAGGSLRLSCAASGSTFKFYTMGWYRQAPGKERELVATIDWSGGSTYYADSVKGRFTISRDNAKNTVYLQMNSLKPEDTSVYYCAAYSRSRTTRLGKYYYWGQGTQVTVSS
polyreactivity (PSR sort gate): high polyreactivity

QVQLVESGGCLVQAGGSLRLSCAASGSIFLSNAMGWYRQAPGKERELVATIDDNGGSTYYADSVKGRFTISRDNAKNTVYLQMNSLKPEDTAVYYCAKQVRVWDLYYYLEEGYWGQGTQVTVSS
polyreactivity (PSR sort gate): low polyreactivity

QVQLVESGGGLVQAGGSLRLSCAASGRTYGHDTMGWYRQAPGKERELVARISRTGSTKYADSVKGRFTISRDNAKNTVYLQMNCLTPEDTAVYYCARVQAGGYGERVYAYHFDYWGQGTQVTVSS
polyreactivity (PSR sort gate): high polyreactivity

QVQLVESGGGLVQAGGSLRLSCAAYGSIFDVHAMGWNRQAPGKERELVAAISDSGGSTYYADSVKGRFTISRDNAKNTVYLLMKSLKPDDTAVYYCNADWSWFNYYDFDYWGQGTHVTVSS
polyreactivity (PSR sort gate): low polyreactivity

QVQLVESGGGLVQAGGSLRLSCAASGRTFGINAMGWYRQAPGKERELVADITDSGVSTYYADSVKGRFTISRDNAKNTVYLQMNSLKPEDTAVYYCNTGSYLFFLYGDDYWGQGTQVTVSS
polyreactivity (PSR sort gate): low polyreactivity

QVQLVESGGGLVQAGGSLRLSCAASGSTFWEYVMGWYRQAPGKERELVAAISDSGGSTYYADSVKGRFTISRDNAKNTVYLQMNSLKPEDTAVYYCNADWSWYNYYDFDYWGQGTQVTVSS
polyreactivity (PSR sort gate): low polyreactivity

QVQLVESGGGLVQAGGSLRLSCAASGFIFVYNAMGWYRPAPGKERELVAAIDYGGGSTTYADSVKGRFTISRDNAKNTVYLQMNSLKPEDTAVYYCAAYYRYLDDIYEYEYWGQGTQVTVSS
polyreactivity (PSR sort gate): low polyreactivity

QVQLVESGGGLVQAGGSLRLSCAASGSIFTYYAMGWYRQAPGKERELVAAITSTGGSTYYADSVKGRFTISRDNAKNTVYLQMNSLKPEDTAVYYCATDYGYYDYWGQGTQVTVSS
polyreactivity (PSR sort gate): low polyreactivity

QVQLVESGGGLVQAGGSLRLSCSASGFIFVDYAMGWYRQSPGKERELVAAISRSGGSTYYADSVKGRFTISRDNAKNTVYLQMNSLKPEDTAVYYCAAKYPFYAKNGYWGQGTQVTVSS
polyreactivity (PSR sort gate): high polyreactivity

QVQLVESGGGLVQAGGRLRLSCAASGSTFPYNAMGCYRQAPGKERELVAAITSTGDSTYYADSVKGRFTISRDKAKNTVYLQMNSLKPEDTAVYYCAARSYASPGWRYEYWGQGTQVTVSS
polyreactivity (PSR sort gate): low polyreactivity

QVQLVESGGGLVQAGGSLRLSCAASGRTFWYYAMGWYRQAPGKERELVAYADSVKGRFTISRDNAKNTVYLQMNSLIPEDTAVYYCAVGPVVWFSSSLYYTDYYYWGQGTQVTVSS
polyreactivity (PSR sort gate): low polyreactivity

QVQLVESGGGLVQAGGSLRISCAASGFTYRKNAMGWDRQAPGKERELVAAITQSSGRTYYADTVKGRFTISRDNAKNTVYLQMNSLKPEDTAVYYCAARGVWPEYDYWGQGTQVNVSS
polyreactivity (PSR sort gate): low polyreactivity

QVQLVESGGGLVQAGGSLRLSCAASGFIFYPNAMGWYRQAPGKERELVAVITGGGSTYYADSVKGLFTISRDNAKNTVYLQMNSLKPEDPAVYYCAARTLRAGYRASGVRRDYWRQGTQVTVSS
polyreactivity (PSR sort gate): high polyreactivity

QVQLVESGGGLVQAGGSLRLSCAASGFTFDSYAMGWYRQAPGKERELVAAITWDGGSTYYADSVKGRFTISRDNAKNTVYLPMNSLKPEDTAVYYCAAVSGFYDQYDYWGQGTQVTVSS
polyreactivity (PSR sort gate): low polyreactivity

QVQLVESGGGLVQAVGSLRLSCAASGSILVTYMGWYRPAPGKEREVVAAISYTGGSTYYADSVKGRFTISRDNAKNSVYLQMNSLKPEDTEVFYCASFYLASETYYYFYWPKDSDDYCGQGTQVTVSS
polyreactivity (PSR sort gate): low polyreactivity

QVQLVESGGGLVQAGGSLRLSCAASGGIFYHYTMGWYRQAPGKERELVASIRGSGGRTYYADSVKGRFTLSRDNAKNTVDLQMNSLKPEDTAVYYCNARGSWYQPTYDYWGQGTQVTVST
polyreactivity (PSR sort gate): high polyreactivity

QVQLVESGVGLVQAGGSLRLSCAASGSIFYPYAMGWYRQAPGKERELVAAISSGGRTYDADSVKGRFTISRDNAKNTVYLQMNSLKPEDTAVSYCAARPKAYGRPPGYYWGQGTQVTVSS
polyreactivity (PSR sort gate): high polyreactivity

QVQLVESGGGLVQAGGSLRLSCAASRSTFVRNAMGWYREAPGKESELVAASSNVGSTYYADSVKGRFTISRDTAKNTVYFQMNILKPEDTAVYYCTKQLWYHKFNYWGQGTQVTVSA
polyreactivity (PSR sort gate): low polyreactivity

QVQLVESGGGLFQAGGSLRISCAASGRTFWYYAMGWYRPAPGKERELVAAITRGTSTYADSVKGRYTISRDNAKNTVYLQMNSLKPEDTAVYYCATYFRVWYRSYDYWGQGTQVTVSS
polyreactivity (PSR sort gate): high polyreactivity

QVHLVESGGGLVQAGGSLRLSCAASGSTFGRNAMGWYRQAPGKERELVAAISRGGGITYYADSVKGRFTISRDNAKNTVYLQMTSLKPEDTAVYYCNAYLSKYFRYDYWGQGTQVTVSS
polyreactivity (PSR sort gate): high polyreactivity

QVQLVESGGGLVQAGGSLRLSCAASGSTFSANTKGWYRQAPGTERELVAGITNTGDTYYADSVKGRFTISRDNAKNTVYLQMNSLKPEDTAVYYCAADSWRRTDGAYWSTVYYWGQGTQVTVSS
polyreactivity (PSR sort gate): low polyreactivity

QVQLVESGGGLVQAGGSLRLSCAASGRTFRDYVMGWYRQAPGKERELVAVISYRGSTYYADSVKGRFTISRDNAKNTVYLLMNSLKPEDTAVYYCAARFSLEGGYYWGQGTQVTVSS
polyreactivity (PSR sort gate): low polyreactivity

QVQHVESGGGLVQAGGSLRLSCAASGSIFTGNAMGWYRQAPGKEREFVAAITNGGITNYADSVKGRFTISRDNAKNTVYLQMNSLKPEDTAVYYCAADYVDFYSFRRFDYWGQGTQVTVSS
polyreactivity (PSR sort gate): low polyreactivity

QVQLVESGGGLVQAGGSLRLSCAASGSTRGYAMGWYRQAPGKEREMVAAIRSSGSTNYADSVKGRFTISRDNAKNTVYLQMNSLKPEDTAVYFCATDGHYLYSWYKYDYWGQGTQVTVSS
polyreactivity (PSR sort gate): low polyreactivity

QVQLVESGGGLVQAGGSLRLSCAASGLIIDGYAMGWSRQAPGKERELVATITVSGTSTYYADSVKGRFTISRDNAKNTVYLQMNSLKPEDTAVYYFATDRNYGYYFVEYDHDYWGQGTQVTVSS
polyreactivity (PSR sort gate): low polyreactivity

QVQLVESGGGLVQAGGSLRLSCAASGSTIAGNAMGWYRQAPGKERELVAVITRGGSTNYADSVKGRFTISRDNAKNTVSLQMNSLKPEDTAVYYCARYRFLLDYWRGGYYWGQGTQVTVSS
polyreactivity (PSR sort gate): high polyreactivity

QVQLVESGGGLVQAGGSLRLSCAASGFTFKGNTMGWYRQAPGKERELVANITRGGTTYYADSVKGRFTISRDNAKNTVYLQMNSLKPEDTAVYYCAARNWPSRGYNYWGQGTQVTVSS
polyreactivity (PSR sort gate): high polyreactivity

QVQLVESGGGLVQAGGSLRLSFAASGSIFKGNVMGWYRQAPGKERELVAGISRRGTSTYYADSVKGRFTISRDNAKNSVYLQMNSLKPEDSAVYYCAKRYYTYGYDYWGQGTQVTVSS
polyreactivity (PSR sort gate): high polyreactivity

QVQLVESGGGLVQAGGRLRLSCAASGRIFGFNAMGWYRQAPGKERELVAAIDGNDASTFYADSGKGRFTISRDNAKNTDYFQMNSLKPEDTAVYYCAAESSYVYLGWREYWGQGTQVTVSS
polyreactivity (PSR sort gate): high polyreactivity
